Numbering of substitutions follows the chain as printed.
Key:
human ILT7-his protein [1] = molecular target: T1, human ILT7-his protein (human, UniProt P59901 28-446); assay: ELISA, plate coated with human ILT7-his, antibody titrated, OD450
T1 construct: also called human ILT7 protein

[2] = molecular target: T2, full-length cynomolgus ILT7 on cells (cynomolgus, UniProt P59901 24-499 (human entry)); assay: flow cytometry on CHOK1-cynomolgus ILT7 cells, MFI
T2 construct: also called CHOK1-cynomolgus ILT7 cells
T2 sequence (P59901 other isoform, or with tags, fused parts or gaps limits assumed): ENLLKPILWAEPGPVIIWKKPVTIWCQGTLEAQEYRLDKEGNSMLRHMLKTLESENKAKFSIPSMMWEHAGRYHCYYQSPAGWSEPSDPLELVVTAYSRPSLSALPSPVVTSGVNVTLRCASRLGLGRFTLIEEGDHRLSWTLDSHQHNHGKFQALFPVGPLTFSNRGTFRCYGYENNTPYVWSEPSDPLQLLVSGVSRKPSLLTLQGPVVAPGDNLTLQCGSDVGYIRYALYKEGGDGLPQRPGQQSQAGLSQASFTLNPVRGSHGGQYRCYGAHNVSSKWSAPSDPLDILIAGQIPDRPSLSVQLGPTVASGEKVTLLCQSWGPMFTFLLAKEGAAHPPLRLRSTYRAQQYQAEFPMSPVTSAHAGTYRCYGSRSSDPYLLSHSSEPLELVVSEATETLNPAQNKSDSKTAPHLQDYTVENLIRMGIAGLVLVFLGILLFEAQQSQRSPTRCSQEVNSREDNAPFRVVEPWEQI

[3] = molecular target: T3, full-length human ILT7 on cells (human, UniProt P59901 24-499); assay: flow cytometry on 293F-human ILT7 cells, MFI
T3 construct: also called CHOK1 cells expressing human ILT7
T3 sequence (P59901 other isoform, or with tags, fused parts or gaps): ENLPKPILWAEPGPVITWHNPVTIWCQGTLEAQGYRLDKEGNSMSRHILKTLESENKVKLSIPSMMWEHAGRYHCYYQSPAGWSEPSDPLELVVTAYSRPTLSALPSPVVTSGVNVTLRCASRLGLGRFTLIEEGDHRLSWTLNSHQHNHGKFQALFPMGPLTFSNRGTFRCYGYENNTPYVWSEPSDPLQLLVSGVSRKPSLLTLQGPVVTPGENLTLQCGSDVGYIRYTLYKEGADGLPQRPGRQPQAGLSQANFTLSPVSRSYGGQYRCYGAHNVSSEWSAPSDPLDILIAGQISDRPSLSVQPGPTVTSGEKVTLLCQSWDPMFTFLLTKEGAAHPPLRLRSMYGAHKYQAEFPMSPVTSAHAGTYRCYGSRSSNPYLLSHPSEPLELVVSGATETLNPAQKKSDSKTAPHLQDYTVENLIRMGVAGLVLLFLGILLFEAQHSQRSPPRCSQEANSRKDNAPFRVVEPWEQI

human ILT7-his protein [4] = molecular target: T1, human ILT7-his protein; assay: ELISA, OD450; the x axis is labelled 'human ILT7 Conc (µg/ml)'
[5] = molecular target: T2, full-length cynomolgus ILT7 on cells; assay: flow cytometry on CHOK1-cynomolgus ILT7 cells, MFI; remark: listed apart in the source
[6] = molecular target: T3, full-length human ILT7 on cells; assay: flow cytometry on 293F-human ILT7 cells, MFI; remark: listed apart in the source
[7] = molecular target: T3, full-length human ILT7 on cells; assay: cell-based or functional assay
human ILT7-his protein [8] = molecular target: T1, human ILT7-his protein; assay: SPR (Biacore 8K), antibody captured through Fc, human ILT7-his as analyte, 25 C
Description: (§1) Methods: The binding affinity of the humanized cmAb12 antibody, hu-cmAb12, was further measured by surface plasmon resonance (SPR) technology with Biacore 8K. As used herein, “hu-cmAb12” refers to a specific antibody clone variant of the Hu12-04 antibody of Examples 8 and 9. The hu-cmAb12 antibody includes a VL having the amino acid sequence of SEQ ID NO: 19, a VH having the amino acid sequence of SEQ ID NO: 26, and a CH having the amino acid sequence of SEQ ID NO: 55. hu-cmAb12 or Tab1 were immobilized on CM-5 chip. The assay was performed at 25° C. and the running buffer was 1×HEPES (10 mM HEPES, 150 mM NaCl, 3 mM EDTA) with 0.005% Tween-20, pH 7.4. Diluted antibodies were captured on the sensor chip through Fc capture method. Human ILT7-his was used as the analyte, and running buffer was used as the dissociation phase. Similarly, ELISA was conducted as described above. An isotype control antibody and reference anti-ILT7 antibody Tab1 were used as controls.

[9] = molecular target: T3, full-length human ILT7 on cells; assay: flow cytometry on 293F-human ILT7 cells
Description: (§2) Methods: The binding affinities of chimeric anti-ILT7 antibodies identified from the screening, including cmAb12, to human ILT7 or cynomolgus ILT7 expressed on cell membrane were measured by flow cytometry. Vectors containing coding sequences for full-length cynomolgus ILT7 (SEQ ID NO: 6) and hFcεRiγ (SEQ ID NO: 7) were generated. […] Both cell lines were seeded, resuspended, and incubated with the chimeric antibodies at 4° C. for 1 hour. Cells were then washed with cold FACS buffer (PBS+2% FBS), resuspended, and incubated with secondary antibody at 4° C. for 1 hour. hIgG1 and Tab1 were used as controls.
(§3) Cells were washed with cold FACS buffer (PBS+2% FBS) by centrifuging, followed by addition of secondary antibodies, and incubation at 4° C. for 1 hour. An isotype control antibody and reference anti-ILT7 antibody Tab1 were used as negative and positive controls. The concentration-MFI curves of FACs were then determined.

human ILT7-his protein [10] = molecular target: T1, human ILT7-his protein; assay: SPR, Biacore 8K, antibody captured on the chip, human ILT7-his as analyte, 25° C.
Description: as §1

[11] = molecular target: T2, full-length cynomolgus ILT7 on cells; assay: flow cytometry on CHOK1-cynomolgus ILT7 cells
Description: as §2, §3

human ILT7-his protein [12] = molecular target: T1, human ILT7-his protein; assay: ELISA, plate coated with human ILT7-his
Description: Methods: The binding of the chimeric anti-ILT7 antibodies identified from the screening, including cmAb12, to human ILT7-his protein was measured by ELISA, along with an isotype antibody hIgG1 as negative control and a reference anti-ILT7 antibody Tab1. 96-well ELISA plates were coated with human ILT7-his in PBS (2 μg/ml) overnight at 4° C. Chimeric antibodies were added to the wells and co-incubated with the coating protein at 37° C. for 1 hour, followed by the addition of secondary HRP labelled antibody. After incubation at 37° C. for 1 more hour, TMB substrate was added to wells and incubated at RT for 15 min. 1 N HCl was added to terminate the reactions. The absorbance at 450 nm was measured with a microplate reader.
Methods: The binding affinity of the humanized cmAb12 antibody, hu-cmAb12, was further measured by surface plasmon resonance (SPR) technology with Biacore 8K. As used herein, “hu-cmAb12” refers to a specific antibody clone variant of the Hu12-04 antibody of Examples 8 and 9. The hu-cmAb12 antibody includes a VL having the amino acid sequence of SEQ ID NO: 19, a VH having the amino acid sequence of SEQ ID NO: 26, and a CH having the amino acid sequence of SEQ ID NO: 55. hu-cmAb12 or Tab1 were immobilized on CM-5 chip. The assay was performed at 25° C. and the running buffer was 1×HEPES (10 mM HEPES, 150 mM NaCl, 3 mM EDTA) with 0.005% Tween-20, pH 7.4. […]

LILRB2/ILT4 [13] = molecular target: T4, LILRB2/ILT4 (UniProt Q8N423 22-460, limits assumed); assay: ELISA, plate coated with 1 µg/ml LILR protein
Description: (§4) Methods: The binding specificities of the chimeric antibodies, including cmAb12, for ILT7 over its related 10 LILR superfamily member proteins were evaluated by ELISA. Plates coated with 1 μg/ml LILR superfamily protein as indicated were incubated with chimeric antibodies at 37° C. for 1 hour, followed by the secondary antibody.

LILRA3/ILT6 [14] = molecular target: T5, LILRA3/ILT6 (UniProt Q8N6C8 24-439); assay: ELISA, plate coated with 1 µg/ml LILR protein
T5 sequence (Q8N6C8 24-439 limits assumed): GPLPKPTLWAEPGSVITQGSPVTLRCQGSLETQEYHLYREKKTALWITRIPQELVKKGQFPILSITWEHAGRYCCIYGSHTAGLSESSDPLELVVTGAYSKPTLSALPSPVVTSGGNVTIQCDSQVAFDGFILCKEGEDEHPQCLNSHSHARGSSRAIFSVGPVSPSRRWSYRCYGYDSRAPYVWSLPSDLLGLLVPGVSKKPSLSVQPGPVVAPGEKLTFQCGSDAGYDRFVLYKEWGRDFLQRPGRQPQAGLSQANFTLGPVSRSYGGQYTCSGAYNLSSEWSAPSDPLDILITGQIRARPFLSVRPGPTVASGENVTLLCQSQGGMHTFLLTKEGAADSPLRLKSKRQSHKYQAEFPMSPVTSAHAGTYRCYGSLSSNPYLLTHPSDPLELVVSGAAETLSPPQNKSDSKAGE
Description: as §4

LILRA6/ILT8 [15] = molecular target: T6, LILRA6/ILT8 (UniProt Q6PI73 24-447, limits assumed); assay: ELISA, plate coated with 1 µg/ml LILR protein
T6 sequence (Q6PI73 24-447 limits assumed): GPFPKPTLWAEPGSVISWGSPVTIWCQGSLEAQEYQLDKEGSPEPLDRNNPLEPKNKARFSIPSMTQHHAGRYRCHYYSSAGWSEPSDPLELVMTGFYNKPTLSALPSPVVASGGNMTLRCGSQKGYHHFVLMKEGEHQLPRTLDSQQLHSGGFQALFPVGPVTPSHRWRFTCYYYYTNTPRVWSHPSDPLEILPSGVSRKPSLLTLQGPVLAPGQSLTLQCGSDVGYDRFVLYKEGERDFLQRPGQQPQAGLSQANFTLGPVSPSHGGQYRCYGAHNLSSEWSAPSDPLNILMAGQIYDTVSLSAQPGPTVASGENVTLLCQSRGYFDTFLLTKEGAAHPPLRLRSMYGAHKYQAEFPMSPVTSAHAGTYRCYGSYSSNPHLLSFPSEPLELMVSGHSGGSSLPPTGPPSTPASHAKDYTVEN
Description: as §4

LILB5 [16] = molecular target: T7, LILB5 (UniProt O75023 24-458, limits assumed); assay: ELISA, plate coated with 1 µg/ml LILR protein
T7 construct: also called LILRB5 (printed as LILB5)
T7 sequence (O75023 24-458 limits assumed): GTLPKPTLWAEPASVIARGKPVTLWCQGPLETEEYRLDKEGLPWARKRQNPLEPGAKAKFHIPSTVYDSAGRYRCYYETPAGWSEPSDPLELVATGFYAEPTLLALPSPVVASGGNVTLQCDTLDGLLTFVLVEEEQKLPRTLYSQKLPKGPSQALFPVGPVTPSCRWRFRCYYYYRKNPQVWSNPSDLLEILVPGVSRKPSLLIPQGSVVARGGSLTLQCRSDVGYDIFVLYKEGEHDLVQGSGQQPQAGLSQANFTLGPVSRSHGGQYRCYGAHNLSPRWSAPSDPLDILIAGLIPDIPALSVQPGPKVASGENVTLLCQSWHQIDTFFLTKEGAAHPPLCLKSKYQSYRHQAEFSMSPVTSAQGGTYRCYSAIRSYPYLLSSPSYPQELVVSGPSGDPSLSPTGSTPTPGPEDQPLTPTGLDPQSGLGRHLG
Description: as §4

LILRB4/ILT3 [17] = molecular target: T8, LILRB4/ILT3 (UniProt Q8NHJ6 22-259); assay: ELISA, plate coated with 1 µg/ml LILR protein
Description: as §4

LILRA2/ILT1 [18] = molecular target: T9, LILRA2/ILT1 (UniProt Q8N149 24-449, limits assumed); assay: ELISA, plate coated with 1 µg/ml LILR protein
T9 sequence (Q8N149 24-449 limits assumed): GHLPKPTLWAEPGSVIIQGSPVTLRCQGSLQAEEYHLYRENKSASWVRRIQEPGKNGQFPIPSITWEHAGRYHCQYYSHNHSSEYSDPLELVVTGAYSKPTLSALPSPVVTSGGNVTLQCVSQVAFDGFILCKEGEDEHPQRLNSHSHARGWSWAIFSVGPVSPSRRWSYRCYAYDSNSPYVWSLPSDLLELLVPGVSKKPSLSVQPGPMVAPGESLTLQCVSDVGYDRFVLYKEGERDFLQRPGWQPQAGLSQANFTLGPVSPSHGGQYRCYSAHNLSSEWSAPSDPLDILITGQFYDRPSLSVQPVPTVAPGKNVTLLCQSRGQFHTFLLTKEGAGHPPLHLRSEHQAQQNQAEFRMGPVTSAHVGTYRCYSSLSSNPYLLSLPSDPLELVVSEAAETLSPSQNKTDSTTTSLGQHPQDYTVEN
Description: as §4

LILRA1 [19] = molecular target: T10, LILRA1 (UniProt O75019 17-461, limits assumed); assay: ELISA, plate coated with 1 µg/ml LILR protein
T10 sequence (O75019 17-461 limits assumed): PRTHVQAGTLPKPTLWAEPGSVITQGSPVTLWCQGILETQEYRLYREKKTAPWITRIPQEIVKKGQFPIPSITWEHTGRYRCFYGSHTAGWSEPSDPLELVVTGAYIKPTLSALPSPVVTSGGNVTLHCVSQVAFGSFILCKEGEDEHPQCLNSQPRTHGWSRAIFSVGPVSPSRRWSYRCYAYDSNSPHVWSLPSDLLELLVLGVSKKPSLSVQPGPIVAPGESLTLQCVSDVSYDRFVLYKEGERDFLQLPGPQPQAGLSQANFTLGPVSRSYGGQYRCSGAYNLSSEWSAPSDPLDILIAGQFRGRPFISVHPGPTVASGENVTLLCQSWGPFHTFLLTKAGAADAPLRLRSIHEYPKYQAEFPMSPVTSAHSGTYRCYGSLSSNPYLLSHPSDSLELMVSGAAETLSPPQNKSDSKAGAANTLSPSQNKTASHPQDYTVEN
Description: as §4

LILRB3/ILT5 [20] = molecular target: T11, LILRB3/ILT5 (UniProt O75022 24-443, limits assumed); assay: ELISA, plate coated with 1 µg/ml LILR protein
T11 sequence (O75022 24-443 limits assumed): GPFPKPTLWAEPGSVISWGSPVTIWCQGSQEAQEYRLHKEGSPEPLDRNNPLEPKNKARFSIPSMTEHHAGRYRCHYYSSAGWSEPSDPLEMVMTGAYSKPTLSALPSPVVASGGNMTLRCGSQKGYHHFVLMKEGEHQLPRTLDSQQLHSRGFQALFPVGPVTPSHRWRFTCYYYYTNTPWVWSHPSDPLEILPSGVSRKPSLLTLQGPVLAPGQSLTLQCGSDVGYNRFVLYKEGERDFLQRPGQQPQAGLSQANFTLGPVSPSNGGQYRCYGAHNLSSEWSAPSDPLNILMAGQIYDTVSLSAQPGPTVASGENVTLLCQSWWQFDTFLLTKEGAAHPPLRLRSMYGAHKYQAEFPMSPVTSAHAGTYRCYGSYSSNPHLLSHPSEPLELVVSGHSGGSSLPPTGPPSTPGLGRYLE
Description: as §4

LILRA5/ILT11 [21] = molecular target: T12, LILRA5/ILT11 (UniProt A6NI73 42-268, limits assumed); assay: ELISA, plate coated with 1 µg/ml LILR protein
T12 sequence (A6NI73 42-268 limits assumed): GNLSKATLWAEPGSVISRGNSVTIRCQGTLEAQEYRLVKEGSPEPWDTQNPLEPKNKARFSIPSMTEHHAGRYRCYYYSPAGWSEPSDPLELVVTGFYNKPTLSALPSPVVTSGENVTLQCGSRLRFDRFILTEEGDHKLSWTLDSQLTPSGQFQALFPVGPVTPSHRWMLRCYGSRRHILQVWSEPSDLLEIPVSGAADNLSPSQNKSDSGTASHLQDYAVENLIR
Description: as §4

LILRB1/ILT2 [22] = molecular target: T13, LILRB1/ILT2 (UniProt Q8NHL6 24-461, limits assumed); assay: ELISA, plate coated with 1 µg/ml LILR protein
T13 sequence (Q8NHL6 24-461 limits assumed): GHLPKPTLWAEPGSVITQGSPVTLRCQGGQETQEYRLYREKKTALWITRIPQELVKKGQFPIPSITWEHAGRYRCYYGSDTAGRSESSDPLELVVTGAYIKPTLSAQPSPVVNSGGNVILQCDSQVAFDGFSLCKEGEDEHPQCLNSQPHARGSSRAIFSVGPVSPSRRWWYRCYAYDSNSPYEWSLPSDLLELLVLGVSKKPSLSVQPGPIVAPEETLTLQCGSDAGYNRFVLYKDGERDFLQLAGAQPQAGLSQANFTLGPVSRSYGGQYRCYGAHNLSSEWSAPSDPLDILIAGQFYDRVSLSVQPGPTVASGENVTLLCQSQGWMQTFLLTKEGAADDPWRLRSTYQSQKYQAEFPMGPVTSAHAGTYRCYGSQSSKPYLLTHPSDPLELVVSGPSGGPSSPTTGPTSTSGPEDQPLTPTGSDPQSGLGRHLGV
Description: as §4

LILRB2/ILT4 [23] = molecular target: T4, LILRB2/ILT4; assay: ELISA, plate coated with 1 µg/ml LILR superfamily protein
Description: as §4

LILRA3/ILT6 [24] = molecular target: T5, LILRA3/ILT6; assay: as above
Description: as §4

LILRA6/ILT8 [25] = molecular target: T6, LILRA6/ILT8; assay: as above
Description: as §4

LILB5 [26] = molecular target: T7, LILB5; assay: as above
Description: as §4

LILRB4/ILT3 [27] = molecular target: T8, LILRB4/ILT3; assay: as above
Description: as §4

LILRA2/ILT1 [28] = molecular target: T9, LILRA2/ILT1; assay: as above
Description: as §4

LILRA1 [29] = molecular target: T10, LILRA1; assay: as above
Description: as §4

LILRB3/ILT5 [30] = molecular target: T11, LILRB3/ILT5; assay: as above
Description: as §4

LILRA5/ILT11 [31] = molecular target: T12, LILRA5/ILT11; assay: as above
Description: as §4

LILRB1/ILT2 [32] = molecular target: T13, LILRB1/ILT2; assay: as above
Description: as §4

T1 sequence (P59901 other isoform, or with tags, fused parts or gaps): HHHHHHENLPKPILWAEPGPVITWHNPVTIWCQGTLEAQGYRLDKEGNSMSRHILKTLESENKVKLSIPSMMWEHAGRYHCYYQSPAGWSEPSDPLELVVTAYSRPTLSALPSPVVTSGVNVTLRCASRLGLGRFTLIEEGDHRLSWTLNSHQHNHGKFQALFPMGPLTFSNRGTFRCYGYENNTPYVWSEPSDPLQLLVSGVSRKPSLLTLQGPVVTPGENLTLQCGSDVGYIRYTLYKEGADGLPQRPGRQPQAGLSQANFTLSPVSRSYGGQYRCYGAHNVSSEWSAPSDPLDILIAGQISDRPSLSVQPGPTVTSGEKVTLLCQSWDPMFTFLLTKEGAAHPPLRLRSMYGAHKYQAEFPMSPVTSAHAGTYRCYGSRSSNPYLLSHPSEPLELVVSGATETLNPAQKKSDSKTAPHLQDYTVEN

B1: benchmark antibody daxdilimab (Tab1) (antibody, V domains shown)
VH: QVQLQQSGAEVKKPGASVKVSCKASGYTFTSYGISWVRQAPGQGLEWMGWISAYNGNTNYAQKLQGRVTMTIDTSTSTAYMELRSLRSDDTAVYYCARNGLWGWDSDAFDIWGRGTLVTVSS
VL: QSALTQPASVSGSPGQSITISCTGTSSDVGGYNYVSWYQQHPGKAPKLMIYDVSNRPSGVSNRFSGSKSGNTASLTISGLQAEDEADYYCSSYTSSSTVVFGGGTKVTVL
Human ILT7-his protein [1]
  EC50: 0.0682 nM
[2]
  EC50: 2.46 nM
[3]
  EC50: 0.579 nM
Human ILT7-his protein [4]
  EC50: 0.0398 µg/mL
[5]
  EC50: 1.1 nM
[6]
  EC50: 0.383 nM
[7]
  NK-dependent ADCC activity (% Cytotoxicity), EC50: 0.0103 nM
Human ILT7-his protein [8]
  Kd: 71.3 nM
  koff: 0.0278 s⁻¹
  kon: 390000 M⁻¹ s⁻¹

B2: humanized antibody hu-cmAb12 (antibody, V domains shown)
VH: QVQLVQSGAEVKKPGASVKVSCKASGYTFTEYPMHWVRQAPGQRLEWMGMIYTDTGEPAYAEEFKGRVTITRDTSASTAYMELSSLRSEDTAVYYCARELGQNFDYWGQGTTVTVSS
VL: DIVLTQSPASLAVSPGQRATITCRASQSVSTSSYSYMHWYQQKPGQPPKLLIYYASNLESGVPARFSGSGSGTDFTLTINPVEAEDTANYYCQHSWDIPYTFGQGTKLEIK
modifications: Example 12: the antibody was conjugated with the dye Alexa488, which the letters do not carry.
notes: also called antibody clone variant of Hu12-04
[9]
  EC50: 0.343 nM
Human ILT7-his protein [10]
  Kd: 111 nM
[7]
  NK-dependent ADCC activity (% Cytotoxicity), EC50: 0.0038 nM
  macrophage-dependent ADCP activity, EC50 (Donor 1): 0.881 nM
  macrophage-dependent ADCP activity, EC50 (Donor 2): 2.17 nM
  macrophage-dependent ADCP activity, EC50 (Donor 3): 1.58 nM
  neutrophil-dependent ADCC activity (% Cytotoxicity), EC50: 16.1 nM
[11]
  EC50: 1.65 nM
Human ILT7-his protein [8]
  koff: 0.106 s⁻¹
  kon: 959000 M⁻¹ s⁻¹
Human ILT7-his protein [12]
  EC50: 0.0791 µg/mL

B3: chimeric antibody Ab12 (cmAb12) (antibody, human IgG1, V domains shown)
VH: QIQLVQSGPELKKPGETVKISCKASGYTFTEYPMHWVKQAPGKGFKWMGMIYTDTGEPAYAEEFKGRFAFSLETSASTAYLQINNLKNEDTATYFCVRELGQNFDYWGQGTTLTVSS
VL: B2 VL with P15L, T22S, Y53K, T78N, N80H, A84E, N89T, Q104G
notes: also called chimeric Ab12
[9]
  EC50: 0.312 nM
[11]
  EC50: 0.939 nM
LILRB2/ILT4 [13]
  ELISA OD 450 nM: 0.3 OD450
LILRA3/ILT6 [14]
  ELISA OD 450 nM: 0.1 OD450
LILRA6/ILT8 [15]
  ELISA OD 450 nM: 0.1 OD450
LILB5 [16]
  ELISA OD 450 nM: 0.1 OD450
LILRB4/ILT3 [17]
  ELISA OD 450 nM: 0.1 OD450
LILRA2/ILT1 [18]
  ELISA OD 450 nM: 0.2 OD450
LILRA1 [19]
  ELISA OD 450 nM: 0.1 OD450
LILRB3/ILT5 [20]
  ELISA OD 450 nM: 0.1 OD450
LILRA5/ILT11 [21]
  ELISA OD 450 nM: 0.1 OD450
LILRB1/ILT2 [22]
  ELISA OD 450 nM: 0.1 OD450
LILRB2/ILT4 [23]
  binding result: no binding
LILRA3/ILT6 [24]
  binding result: no binding
LILRA6/ILT8 [25]
  binding result: no binding
LILB5 [26]
  binding result: no binding
LILRB4/ILT3 [27]
  binding result: no binding
LILRA2/ILT1 [28]
  binding result: no binding
LILRA1 [29]
  binding result: no binding
LILRB3/ILT5 [30]
  binding result: no binding
LILRA5/ILT11 [31]
  binding result: no binding
LILRB1/ILT2 [32]
  binding result: no binding
Human ILT7-his protein [12]
  EC50: 0.0751 nM

Source: US20260265373A1 (INMAGENE PTE, published 2026)
